The record followed here is US20220249563A1 (LEGEND BIOTECH IRELAND, published 2022).

First the molecules themselves.
B1: AS64142 (VHH)
VHH: QVHLMESGGGLVQTGGSLRLSCTASGFTFDRNAMRWYRQAPGKEREGVSCIDWTGANIAYADSVKGRFTISRDNAKNTLYLQMNSLKPEDTGMYYCAADTTSGYCSGFWSTSRYSWGQGTQVTVSS
notes: camel sdAb; crude E. coli supernatant
B2: AS64057 (VHH)
VHH: QVQLEESGGGLVQTGGSLRLSCTASGFTFDRNAMRWYRQAPGKEREGVSCISWTGANIAYADSVKGRFTISRDNAKNTLYLQMNSLKPEDTGMYYCAADTTSGSCSGFWSTSRYYWGQGTQVTVSS
notes: as for B1
B3: AS64006 (VHH)
VHH: QVHLVESGGGSVQAGGSLRLSCEVSGYTGDTTYIGWFRQAPGKEREGVALIYTSGTSEYYADSVKGRFIISRDNAKNTVYLQMNSLKPEDTAMYYCGARSRTMMYWGQGTQVTVSS
notes: as for B1
B4: AS76169 (VHH)
VHH: QVHLMESGGGSVQAGGSLRLSCAASGYIYSSFCMGWFRQAPGKEREVVAYIRDNIMTSYTDSVKGRFTISKDNAKRTLYLQMNGLKPEDTGMYYCAVDRGGYANSCAVAARYDYWGRGTQVTVSS
notes: as for B1
B5: AS64443 (VHH)
VHH: QVHLVESGGGSVQAGGSLRLSCAASGYTDSSVYIGWFRQAPGKEREEVAIIYTGGESTHYRSSVKGRFTVSQDNAKNTLYLQMNSLKPEDTAMYYCAARFPAVTYWGQGTQVTVSS
notes: as for B1
B6: AS75695 (VHH)
VHH: QVRLVESGGGSVQAGGSLRLSCVASGYTVSAYCMGWFRQVLGKGRERIAFIDAGGATIYADPVKGRFTISKDNAKNTLYLQMNSLKPEDTAMYYCVADRRGRVRRCEYNAWGQGTQVTVSS
notes: as for B1
B7: AS69527 (VHH)
VHH: EVQLAESGGGSVQAGGSLRLSCVASRYTFSSTCMAWFRQAPGKEREEVAAIYTDDGSTWYADSVKGRFTISRDNAKNTVYLQMNSLKPEDTAMYYCAARRWACPRVGSWHEFAYWGQGTQVTVSS
notes: as for B1
B8: AS63956 (VHH)
VHH: QVHLVESGGGLVQAGGSLRLSCAASGFTYSNCCMRWYRQAPGKARELVSLINSSGGTYYADSVRGRFTISKDNAKNTLYLQMNSLKPEDTAMYYCAAYQAKYCSGPCAPPTDWGQGTQVTVSS
notes: as for B1
B9: AS64071 (VHH)
VHH: QVHLMESGGGSVQAGGSLRLSCVASGNTYRLNSMGWFRQAPGKEREGVAFIVMIRGTTYYGASVKGRFTISQDNAQTTVYLQMSSLKPEDTAMYYCAASTKDQFYVFNPIGYDSWGQGTQVTVSS
notes: as for B1
B10: AS63965 (VHH)
VHH: QVQLVESGGGSVQAGGSLRLSCVASGYSSGSCRMGWYRQAPGKERELVSKVISDGTTVYADSVKGRFTLSQGNAKNTVYLQMSSLLPEDTAMYYCNAWCREYPGGILNNGWGQGTQVTVSS
notes: as for B1
B11: AS64228 (VHH)
VHH: QVQLKESGGGSIQAGGSLRLSCAASGVSYNRCSMGWYRQAPGKGRELVSRIQPGGNTYYADSVKGRFTVSQDNAKNTVSLQMNSLKPEDTAMYYCNALCWRENVNYWGQGTQVTVSS
notes: as for B1
B12: AS64597 (VHH)
VHH: QVHLVESGGGSVQAGGSLRLSCAASGYTYRVNFMGWFRQTPGKEREGVATIDSGVGTTYYADSVKGRFTISHNNAKNTIYLQMNSLKPEDTAMYYCAAGGPPTDGDRWYPLRPPGYNYWGQGTQVTVSS
notes: as for B1
B13: AS69500 (VHH)
VHH: QVRLVESGGGSVQAGGSLRLSCAADRYTYSSACMGWFRQAPGKEREGVASIFTGTGGSTYYADSVKGRFTISQDNAKNTVYLQMNSLKPEDTAIYYCAARAFQVGYCYLRTDVYNYWGQGTQVTVSS
notes: as for B1
B14: AS63993 (VHH)
VHH: QVKLVESGGGLVQAGGSLRLSCTVSGFTFDDLVMAWFRQAPGKERQLVSLVATAGNSVYADSVKGRFTLSRDNAHSTAYLQMNGLKPEDTAMYYCAARTDSEHAFKFWGQGTQVTVSS
notes: as for B1
B15: AS64160 (VHH)
VHH: EVQLVESGGGSVQAGGSLRLSCAASVYTSSSYCMGWFRQAPGKEREGVAAMCFGGLVTHYADSVKGRFTISQDNAKNTVYLQMNSLKPEDTAMYYCAADFGRDKNYLRPLLPHAYNYWGQGTQVTVSS
notes: as for B1
B16: AS64060 (VHH)
VHH: QVKLVESGGGSVQAGGSLRLSCAASGSTYCTYRMSWFRQAPGKEREFVAVIDSGGSTSYADSVKGRFTISRDNAKNTVYLQMNSLKPEDTAMYYCKTDPTIGCPQTYRYNYWGQGTQVTVSS
notes: as for B1
B17: AS68355 (VHH)
VHH: QMQLVESGGDSVQAGGSLRLSCAASGYTYSGVCMGWFRQAPGKEREGVAAIDSDGSTSYADSVKGRFTISKDNAKNTLYLQMNSLKPEDTAMYYCAAAIVGGFNAYCSGGYVLDFGAWGQGTQVTVSS
notes: as for B1
B18: AS64300 (VHH)
VHH: QVHLVESGGGSVQTGGSLRLSCAVSGDIYNLMSMAWFRRAPGKEREGVAYINTIIGNTYYTDSVKGRFTISRDNSKNTLYLQMNNLKPEDTAMYYCAAFNYGGAWYEERSYKYWGQGTQVTVSS
notes: as for B1
B19: AS68280 (VHH)
VHH: QVQLVESGGGSVHPGGSLRLSCAASGSTYSSNYLGWFRQAPGKGRDWVAAISTGDGATAYADSVKGRFTISQDNAKNTVYLQMNSLKLEDSAMYYCAAARGRFIDWTKATQYDYWGQGTQVTVSS
notes: as for B1
B20: AS75387 (VHH)
VHH: QVHLVESGGGSVQAGGSLRLSCAASGYPYSSPCMAWFRQAPGKEREGVLVAYTGGDIQYLTDSVKGRFTISRDNAKNTVYLQMNSLKPEDTAMYYCAADLRLPRAGGCAYSYWGQGTQVTVSS
notes: as for B1
B21: AS64634 (VHH)
VHH: QVRLVESGGGSVQAGGSLRLSCAASGYSFRGDFMCMGWFRQTPGKGREGVAVFYPGGGSTNYADSAKGRFTISQDNAKNTMYLQMNTLKPEDTAMYYCAARRWVSGTCYWDSDFHYWGQGTQVTVSS
notes: as for B1
B22: AS63987 (VHH)
VHH: QVRLVESGGGSVQAGGSLRLSCEATGYRNCMAWFRQAPGKEREGVAVIYTPSGITDYASSVKGRFTISQNNARNTQYLQMNSLKPEDTAMYYCAADRPFVCNIANMRRSSNWGRGTQVTVSS
notes: as for B1
B23: AS75376 (VHH)
VHH: QVQLKESGGGSVQAGGSLRLSCAASGYTYSSHSMGWFRQAPGKEREGVAVIYTGDGSTYYADSVKGRFTISQDNAKNTVYLQMNSLKPEDTAMYYCAADPNPDYMLPFRPSRRSWWGQGTQVTVSS
notes: as for B1
B24: AS64395 (VHH)
VHH: QVRLVESGGGSVQAGGSLRLSCAASGSTYSTNFMGWFRQAPGKEREGVATLVTWAERTAYADSVKGRFTISQDRAKNTVYLQMNGLKPEDTAMYYCAAAASTAVRLLDPGDFAYWGQGTQVTVSS
notes: as for B1
B25: AS63937 (VHH)
VHH: QVKLVESGGGSVQAGGSLRLSCAASGSTISSRPMAWFRQAPGKEREGVACIHTGLGRTYYADSVKGRFTISQDNAKNTVYLQVNSLKPEDTAMYYCAADSRRPCMVAAGYTYWGQGTQVTVSS
notes: as for B1
B26: AS64380VH7 HCAb (Fc fusion, not shown: a dimerising Fc or GST)
chain: EVQLVESGGGLVQPGGSLRLSCAASGNTYSSNYMGWFRQAPGKGREEVAVIYTRGGHTYYVDSVRGRFTISQDNAKNSVYLQMNSLRAEDTAMYYCAASSRHRLGLNNPRDYDYWGQGTLVTVSS
notes: humanized sdAb fused with human IgG1 hinge and Fc (humanized HCAb), crude HEK293 medium

The target in the first assay is T1, extracellular domain of human DLL3 protein (aa27-466) having an N-terminal FLAG tag (AdipoGen, AG-40B-0151) (human, UniProt Q9NYJ7 27-466).
T1 construct: range 27-466; also called DLL3 ECD protein
T1 sequence (looked up): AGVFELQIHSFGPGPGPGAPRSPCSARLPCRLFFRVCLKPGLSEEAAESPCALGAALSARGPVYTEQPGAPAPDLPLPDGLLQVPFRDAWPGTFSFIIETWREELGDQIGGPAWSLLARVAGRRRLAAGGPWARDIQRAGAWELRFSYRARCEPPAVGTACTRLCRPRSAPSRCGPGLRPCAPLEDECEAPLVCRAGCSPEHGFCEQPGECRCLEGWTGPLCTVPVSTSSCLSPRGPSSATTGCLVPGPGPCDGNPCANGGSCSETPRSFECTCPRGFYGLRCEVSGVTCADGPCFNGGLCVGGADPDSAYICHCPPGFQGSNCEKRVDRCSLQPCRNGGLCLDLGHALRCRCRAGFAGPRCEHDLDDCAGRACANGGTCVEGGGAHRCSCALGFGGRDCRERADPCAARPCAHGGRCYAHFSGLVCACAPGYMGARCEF
Briefly: ELISA (protein), FACS (cells). A general note: In an ELISA, binding on a coated surface is turned into a signal by an enzyme label.
As for B1, the binding result is on record as “binds”. As to B2, the binding result is listed as “binds”. On the same count and under the same terms, with B3 the entry was “binds”; with B4, “binds”; with B5, “binds”. Same read-out and setting: the value for B6 was “binds”. Still for that read-out and setting: the value for B7 was “binds”; that for B8 was “binds”. Consider B9, for which the binding result is “binds”. On the same count and under the same terms, the value for B10 was “binds”; that for B11 was “binds”; that for B12 was “binds”. Same read-out and setting: with B13 the entry was “binds”; with B14, “binds”. Still for that read-out and setting: the value for B15 was “binds”; that for B16 was “binds”; that for B17 was “binds”. For the molecule B18, the binding result is “binds”. For the molecule B19, the binding result is “binds”. The same measure, in the same setting: the value for B20 was “binds”; that for B21 was “binds”; that for B22 was “binds”. Same read-out and setting: with B23 the entry was “binds”; with B24, “binds”. In the case of B25, the binding result is “binds”.

For the next assay, the target named is T1, extracellular domain of human DLL3 …. Briefly: SPR (Biacore), HCAb captured by anti-human Fc, human DLL3 as analyte, 1:1 fit. From the text: The camel and humanized sdAb sequences were fused with human IgG1 hinge and Fc, resulting the chimeric and humanized HCAb sequences. The DNAs encoding these HCAbs were synthesized and inserted into pTT5 vector. HCAb expression plasmids were used to transfect HEK293 cells. Crude HCAb proteins secreted to the medium were subjected to SPR affinity measurement as follows: briefly, capturing antibody anti-human Fc pAb (GE healthcare) was immobilized on a Biacore™ CM5 chip to approximately 6,000 RU using EDC-activated amine coupling chemistry. HCAb of interest was captured for 300 seconds onto the sensorchip surface. Human DLL3 (AdipoGen, AG-40B-0151) was flowed over the sensorchip surface at a series of increasing concentrations. Association and dissociation phases were monitored. Captured antibody and antigen were removed between cycles using 10 mM Glycine-HCl, pH 2.0 buffer in order to ensure a fresh binding surface for the antigen. The resulting sensorgrams were fit globally using a 1:1 binding model in order to calculate on- and off-rates (ka and kd, respectively), as well as affinities (KD).
The molecule B26 gave a Kd of 45 nM, a koff of 0.0015 s⁻¹ and a kon of 32000 M⁻¹ s⁻¹.

By Kd is commonly meant the constant that tells how readily two partners part at equilibrium. Read a high Kd as lower affinity. In general, koff refers to the first-order rate constant of dissociation. One may read the kon as the second-order rate constant of association.
